Experimental data reported in paper PMC9541865, “Clinical Pharmacology of Insulin Aspart Biosimilar GP40071: Pharmacokinetic/Pharmacodynamic Comparability in Hyperinsulinemic Euglycemic Clamp Procedure” (Clinical Pharmacology in Drug Development, 2022).
Where two headings read alike, the source gives them in different places.

What was measured:
[1] = test system: healthy male volunteers; experiment: Pharmacodynamics (glucose infusion rate) in hyperinsulinemic euglycemic clamp (HEC); type: in vivo, human; settings: N = 26, single s.c. 0.3 IU/kg, arithmetic mean (SD); for AUCGIR0‐t / GIRmax: 8-h HEC
Protocol: The PD effect of insulin aspart was evaluated using the manual euglycemic clamp technique, as described previously[7] with adaptations described below.
Before the clamp procedure. Subjects were hospitalized approximately 12 hours before each drug administration. After the baseline physical examination, vital signs measurements, alcohol breath test, and urine drug testing were performed to confirm compliance with the study restrictions. All participants were given a standardized light meal in the evening before the clamp. Subjects fasted for at least 10 hours before the dosing and remained fasted until the end of the clamp.
During the clamp procedure. The next morning HEC was performed.
Pharmacodynamics. As described above, blood glucose values determined every 5 minutes during HEC were used to measure and manually adjust GIR.

[2] = test system: healthy male volunteers; experiment: Safety and tolerability (adverse events) in HEC study; type: in vivo, human; settings: single s.c. 0.3 IU/kg, N = 26; for Number of adverse events (AEs): all transitory and mild, most probably related to the HEC procedure; for Tolerability of single dose: healthy male volunteers
Protocol: Safety evaluation. The safety and tolerability of both studied drugs were also assessed. Throughout the trial, adverse events (AEs) were monitored and all participants underwent physical examination, vital signs assessment, electrocardiogram (ECG) recording, and laboratory blood and urine testing.

[3] = human, in vivo, sc
Protocol: (§1) This was a phase 1, randomized, double‐blind, two‐center, two‐treatment, single‐dose, two‐period, crossover, 8‐hour HEC study in healthy subjects. The study was conducted simultaneously in 2018 at two clinical sites (Almazov National Medical Research Center, Saint Petersburg, Russia, and Endocrinology Research Centre, Moscow).
(§2) NovoRapid® Penfill® (Novo‐Asp), as a solution for injection (100 IU/mL), by NovoNordisk, Denmark was used as a reference drug. Both drugs were administered subcutaneously into the abdomen using a BD Micro‐Fine 0.5‐mL insulin syringe with an 8‐mm needle. In this study, the dose of insulin aspart was 0.3 IU/kg for each formulation.
(§3) The next morning HEC was performed. Subjects remained in a supine position for the entire procedure. The time of dosing of the investigated insulins was defined as a zero point. Plasma glucose levels were measured to confirm euglycemia state 60 and 30 minutes prior to the dosing. The target value for blood glucose concentrations during the clamp procedure was defined as 90 mg/100 mL and the acceptable glycemic range in this study was set as 80–100 mg/100 mL. After subcutaneous injection of the investigated insulin, intravenous 20% glucose infusion was started once the baseline plasma glucose level decreased by more than 5 mg/100 mL. The glucose infusion rate (GIR) was controlled and adjusted manually using an infusion pump (Infusomat fmS, B. Braun Melsungen AG, Germany) to maintain plasma glucose concentrations of 80–100 mg/100 mL. HEC lasted 8 hours, and during the entire procedure glycemia was measured using a glucose analyzer (StatStrip, Nova Biomedical, USA) and GIR was adjusted accordingly every 5 minutes. The GIR was documented throughout the procedure and was used to reflect the activity of insulin. Glucose infusion could be discontinued earlier if GIR equaled 0 mg/kg/min at three consecutive measurements 6 hours or more after dosing. Blood samples for PK assessment were obtained for 8 hours postdose.
(§4) Pharmacokinetics. During each HEC 21 samples (each 9 mL of venous blood) were collected from all participants at regular time intervals to assess the concentrations of insulin aspart and C‐peptide: 60, 30, 0 minutes predose and 10, 20, 30, 40, 50, 60, 75, 90, 105, 120, 135, 150, 165, 240, 300, 360, 420, 480 minutes postdose. To obtain plasma samples for the bioanalytical part the blood samples were centrifuged at 3000 rpm for 15 minutes, then the supernatant was transferred into clean tubes. Insulin determination in plasma was performed by a validated enzyme immunoassay (EIA) method using a Personal Lab (Adaltis S.r.l., Italy) analyzer. A Mercodia Iso‐Insulin ELISA kit (Mercodia, Sweden) was used to measure total endogenous human insulin and insulin aspart concentrations and then a Mercodia Insulin ELISA kit (Mercodia) was used to quantify specifically the endogenous human insulin concentration. […] The validated lower (LLOQ) and upper (ULOQ) levels of quantification for total insulin assay were 10.00 and 300.00 μIU/mL, and for human insulin assay they were 10.00 and 150.00 μIU/mL.

[4] = Pharmacokinetics of insulin aspart in plasma during hyperinsulinemic euglycemic clamp (HEC); settings: healthy male volunteers, N = 26, arithmetic mean (SD); for AUCins.0‐t: single s.c. 0.3 IU/kg into abdomen, ELISA double measurement; for AUCins.0‐t / Cins.max: 8-h HEC, plasma; for Cins.max: ELISA; for AUCins.0‐∞: extrapolated to infinity
Protocol: as §1, §2, §3, §4

Row | Substance | AUCGIR0‐t [1] | GIRmax [1] | tGIRlag (onset of action) [1] | tGIRmax (time to reach GIRmax) [1] | Cases of hyperbilirubinemia [2] | Cases of phlebitis [2] | Number of adverse events (AEs) [2] | Tolerability of single dose [2] | t1/2 [3] | AUCins.0‐t [4] | Cins.max ([4]; single s.c. 0.3 IU/kg) | tmax ([4]; single s.c. 0.3 IU/kg) | AUCins.0‐∞ ([4]; single s.c. 0.3 IU/kg) | t1/2 ([4]; single s.c. 0.3 IU/kg)
1 | insulin aspart [GP‐Asp] | 43.48 (12.43) mg/kg × 60 min | 11.21 (3.43) mg/kg/min | 0.48 (0.21) | 2.75 (0.94) | One | one | two | well tolerated | 0.88 (0.31) h | 750.86 (163.48) μLU/mL × h | 286.95 (86.53) μLU/ml/mL | 1.51 (0.53) h | 776.90 (166.33) μLU/ml/mL × h | –
2 | insulin aspart [Novo‐Asp] | 42.81 (13.28) mg/kg × 60 min | 10.65 (3.3) mg/kg/min | 0.44 (0.18) | 2.82 (1.02) | One | one | two | well tolerated | – | 716.37 (199.60) μLU/mL × h | 245.58 (72.70) μLU/ml/mL | 1.37 (0.49) h | 745.70 (209.72) μLU/ml/mL × h | 0.93 (0.36) h
